The chains are these.
B1: LINE1-full (parent)
chain: UACGUAGGUGGUUUUCCCCUGAUAGUGCUAAGGGGGCCUGGAAGUUUGGACUGGGCAGAGCUCAACACAGCGUGGCAAAGUGGCUGUGGCUAGACUGCCUCUCUGGAUUCCUCGUCACUCAGCAGGGCAUCUCUGAGAGAAAUGCC

In this series the parent is B1. In words: self-cleavage, relative activity (ratio to wild type); higher = more cleavage; in vitro, sequencing; the parent is a self-cleaving ribozyme.
Turning to A50G G122A, the self-cleavage was found to be 0.83.

For the variant G49U U132C, the self-cleavage was 1.06.

As to G49U U132A, the self-cleavage is 1.31.

Take G49A G122C: the self-cleavage came out at 1.28.

Take G49U A124U: the self-cleavage was 1.59.

As to A50G A136G, the self-cleavage was 1.04.

Turning to A50G A136U, the self-cleavage worked out at 1.15.

Turning to A50C U81A, the self-cleavage is 1.76.

U47G A65C: the self-cleavage turned out to be 0.

G49U G70A: the self-cleavage came to 0.04.

A50G G82A: the self-cleavage turned out to be 1.04.

As to G49A U143C, the self-cleavage was determined as 1.09.

For G49A U143G, the self-cleavage turned out to be 1.1.

G48A A65G: the self-cleavage was determined as 0.03.

With G48U U85A, the self-cleavage was 0.1.

Regarding G49U U108C, the self-cleavage is 1.5.

U47G A140G: the self-cleavage was 0.71.

In the case of U47G A140U, the self-cleavage was determined as 0.9.

As to U47G C113A, the self-cleavage is 1.6.

Consider A50G A65C, for which the self-cleavage came to 0.1.

With A50G A65U, the self-cleavage is 0.24.

In the case of A50G A65G, the self-cleavage stood at 0.14.

With A50C U112C, the self-cleavage is 1.36.

For the variant G49U C71U, the self-cleavage came to 0.71.

For G49A U87C, the self-cleavage worked out at 0.21.

Take G48A C63U: the self-cleavage amounted to 0.36.

Turning to G49U A140U, the self-cleavage amounted to 0.8.

With A50C A77U, the self-cleavage worked out at 0.35.

As for G49A A117G, the self-cleavage was 1.24.

As for A50G C84U, the self-cleavage was found to be 0.11.

As to A50C C120U, the self-cleavage worked out at 1.66.

Turning to U47G A77U, the self-cleavage came to 0.94.

Regarding U47G A77G, the self-cleavage came out at 1.09.

Consider G48A A141G, for which the self-cleavage turned out to be 1.42.

For G48A U143A, the self-cleavage turned out to be 1.64.

For G49A G82U, the self-cleavage is 1.49.

For A50G G54A, the self-cleavage was found to be 0.16.

On to G49A A129U, for which the self-cleavage was found to be 1.46.

As to G49A A129G, the self-cleavage came to 1.69.

Regarding A50C C116U, the self-cleavage turned out to be 1.34.

As for U47G U134C, the self-cleavage worked out at 0.

For the variant G49A U96C, the self-cleavage was 0.03.

As for A50G C123U, the self-cleavage worked out at 0.43.

With G48U U81A, the self-cleavage is 1.8.

As for U47G U81C, the self-cleavage is 0.

For U47G U81A, the self-cleavage came to 1.81.

As to U47G G48U, the self-cleavage was determined as 0.74.

For U47C U134A, the self-cleavage amounted to 1.34.

Take A50C A121G: the self-cleavage is 2.3.

Take G48A U130A: the self-cleavage worked out at 0.91.

For A50G A69G, the self-cleavage came out at 0.35.

For the variant A50G A69U, the self-cleavage is 0.1.

As to G49C A141U, the self-cleavage amounted to 1.55.

On to G49U A65C, for which the self-cleavage worked out at 0.04.

In the case of U47G A129U, the self-cleavage is 0.53.

Consider G49A A141G, for which the self-cleavage came to 1.64.

With G48A U132A, the self-cleavage worked out at 1.38.

Consider G48A U132C, for which the self-cleavage turned out to be 1.29.

Turning to U47G G97A, the self-cleavage is 0.05.

With U47G U91C, the self-cleavage came to 0.1.

As for A50C A57U, the self-cleavage worked out at 0.

With G49U U96C, the self-cleavage came to 0.11.

In the case of G49U U96A, the self-cleavage amounted to 0.02.

Regarding A50G C66U, the self-cleavage was 0.08.

For A50G C66A, the self-cleavage was found to be 0.06.

Take A50G G58C: the self-cleavage amounted to 0.11.

Regarding U47C U132A, the self-cleavage turned out to be 0.93.

With U47C U132C, the self-cleavage worked out at 1.62.

As for A50G G80U, the self-cleavage came out at 0.35.

For the variant A50G G80A, the self-cleavage came to 1.79.

Consider G48A C131G, for which the self-cleavage was determined as 0.17.

In the case of G48A G93U, the self-cleavage came to 0.03.

In the case of G49A A107G, the self-cleavage was 0.73.

Regarding U47G U73C, the self-cleavage is 2.66.

As to G49A U102C, the self-cleavage amounted to 1.11.

Regarding G49U U91C, the self-cleavage was 0.46.

G48U A117G: the self-cleavage came out at 1.13.

Consider G48C U91C, for which the self-cleavage turned out to be 1.05.

As to G49A A79G, the self-cleavage amounted to 0.97.

Take G48A A69C: the self-cleavage was determined as 0.02.

Turning to G48A A69G, the self-cleavage is 0.3.

Turning to A50G A78U, the self-cleavage came out at 1.2.

As to A50G A78G, the self-cleavage is 0.53.

Regarding G49A U91G, the self-cleavage was determined as 0.04.

For U47G U85C, the self-cleavage is 0.33.

Consider U47G U85A, for which the self-cleavage came to 0.05.

For the variant U47G A107G, the self-cleavage is 1.24.

Turning to A50C C103U, the self-cleavage turned out to be 1.37.

In the case of G48A A117G, the self-cleavage was 1.47.

G49U C98A: the self-cleavage was 0.04.

As to A50G A79C, the self-cleavage stood at 1.02.

On to A50G A79G, for which the self-cleavage is 1.

Consider U47G U52A, for which the self-cleavage was 1.18.

For G48U A129G, the self-cleavage amounted to 1.23.

As to U47G A142C, the self-cleavage turned out to be 1.25.

Turning to U47G U112A, the self-cleavage is 0.94.

Turning to U47G U112C, the self-cleavage worked out at 0.8.

Regarding A50C G82A, the self-cleavage amounted to 2.06.

On to G48A A94G, for which the self-cleavage stood at 0.13.

As for G48A A94U, the self-cleavage is 0.18.

Take U47G U130C: the self-cleavage was found to be 1.24.

For the variant A50G A129U, the self-cleavage was 0.26.

In the case of A50G A129C, the self-cleavage came to 0.75.

In the case of A50G A129G, the self-cleavage is 1.22.

A50G A121U: the self-cleavage worked out at 0.48.

With A50G A121G, the self-cleavage was 1.11.

In the case of U47G G135A, the self-cleavage was 0.79.

Consider U47G U119A, for which the self-cleavage turned out to be 1.32.

Regarding A50G G53C, the self-cleavage was found to be 0.13.

With G49A A77U, the self-cleavage turned out to be 0.86.

As to G49C A121G, the self-cleavage came out at 0.93.

Turning to G49C A59G, the self-cleavage came to 0.12.

As to G48A A129G, the self-cleavage stood at 1.54.

On to G48A U134A, for which the self-cleavage came to 0.83.

In the case of U47G A124G, the self-cleavage came to 0.56.

On to U47G C146U, for which the self-cleavage was 1.69.

As for U47G C146A, the self-cleavage was 1.22.

In the case of G49A U81A, the self-cleavage amounted to 1.95.

On to U47C U143C, for which the self-cleavage was determined as 1.57.

Take G48A A77G: the self-cleavage was found to be 1.73.

In the case of A50C G122C, the self-cleavage was determined as 1.1.

As to U47G A136U, the self-cleavage came to 1.53.

Take U47G U96C: the self-cleavage was 0.21.

Turning to G49C A138G, the self-cleavage came to 1.59.

On to G48A G144U, for which the self-cleavage came to 1.46.

In the case of A50G A138C, the self-cleavage amounted to 1.12.

Take A50G A138G: the self-cleavage amounted to 1.2.

Regarding U47G A79U, the self-cleavage worked out at 2.35.

Take G48A A140G: the self-cleavage worked out at 1.02.

Consider G48A G122A, for which the self-cleavage came out at 1.27.

Regarding A50C C146U, the self-cleavage was determined as 1.9.

In the case of G49A U119A, the self-cleavage is 1.15.

As for G49A U73C, the self-cleavage worked out at 2.51.

For the variant U47G G60A, the self-cleavage was found to be 0.02.

As to G48A G49U, the self-cleavage is 0.57.

A50G A107U: the self-cleavage came to 1.24.

A50G A92U: the self-cleavage amounted to 0.37.

Regarding G48A G125A, the self-cleavage amounted to 1.38.

Regarding G48A A136G, the self-cleavage amounted to 1.62.

On to A50G G93U, for which the self-cleavage was 0.05.

With G48U A57U, the self-cleavage came to 0.08.

As for A50G G105A, the self-cleavage was found to be 0.43.

For A50G G105C, the self-cleavage stood at 1.11.

In the case of A50G C56U, the self-cleavage amounted to 0.06.

On to A50C U115C, for which the self-cleavage was found to be 1.84.

Consider G49A U134C, for which the self-cleavage was found to be 0.75.

Turning to G49A U134A, the self-cleavage worked out at 1.05.

Turning to A50G C51U, the self-cleavage worked out at 0.62.

For the variant A50G C68U, the self-cleavage amounted to 0.1.

In the case of U47C U130C, the self-cleavage amounted to 1.63.

Turning to A50C A65U, the self-cleavage came out at 0.31.

In the case of G48U G88C, the self-cleavage is 0.04.

Take G49U A92G: the self-cleavage was found to be 0.04.

In the case of A50C U104A, the self-cleavage worked out at 0.87.

Turning to G49U C76U, the self-cleavage is 2.46.

In the case of G49U U119C, the self-cleavage stood at 1.2.

In the case of A50G G106A, the self-cleavage was found to be 1.41.

Regarding A50C A107G, the self-cleavage is 1.53.

Take A50G A141U: the self-cleavage is 1.54.

Regarding A50G A141G, the self-cleavage turned out to be 1.

A50G A67C: the self-cleavage was found to be 0.

Consider A50G A67U, for which the self-cleavage was 0.1.

In the case of G48U A64G, the self-cleavage stood at 0.18.

With G48A U102C, the self-cleavage is 1.94.

For A50G G83A, the self-cleavage is 0.28.

As to A50G A94G, the self-cleavage was 0.32.

For the variant A50G A94U, the self-cleavage was 0.27.

For the origin of these results see the RNAGym collection of RNA variant scans (doi:10.7554/elife.90254).
